This data set concerns the molecule itself. Description: thioflavin T fluorescence.

B1: FUS LC, low complexity domain of Fused in sarcoma (FUS), residues 1-163 (domain or fragment, UniProt P35637 1-163, looked up)
chain: MASNDYTQQATQSYGAYPTQPGQGYSQQSSQPYGQQSYSGYSQSTDTSGYGQSSYSSYGQSQNTGYGTQSTPQGYGSTGGYGSSQSSQSSYGQQSSYPGYGQQPAPSSTSGSYGSSSQSSSYGQPQSGSYSQQPSYGGQQQSYGQQQSYNPPQGYGQQNQYNS
Regarding B1, the binding result was “binds”.

B2: FUS LC G156E, low complexity domain of FUS (residues 1-163) with the pathogenic G156E mutation (domain or fragment, UniProt P35637 1-163, looked up)
chain: MASNDYTQQATQSYGAYPTQPGQGYSQQSSQPYGQQSYSGYSQSTDTSGYGQSSYSSYGQSQNTGYGTQSTPQGYGSTGGYGSSQSSQSSYGQQSSYPGYGQQPAPSSTSGSYGSSSQSSSYGQPQSGSYSQQPSYGGQQQSYGQQQSYNPPQGYEQQNQYNS
In the case of B2, the binding result was “binds”.
